The DeepSol protein solubility set

Assay: soluble on expression in E. coli; label from the status in PepcDB or PDB records

Sequence | soluble on expression in E. coli
MSLCGIAGLFNCNLPADELRLDQAVAKLTHRGPDDRGIFLDGRFGMGHTRLSIIDLAGGHQPLFSEDRRLALIANGEIYNFIELRSELTAAGFRFQTQSDSEVILHAYLAFGEGFLERIQGMFAFALYDALEGRLILARDRLGIKPLFLARRPDGIAFASEIKALLPLLDQPREIDPQGLAQYFQNQFSTGATTVLRGVERVLPGEAVVVEAGKTTRRFRYWSPLAVRTEELDFDEAAARFDALMERVMVEHMRSDVPFGLFLSGGVDSSLLLALLTRYSGEPIRTFSVGFPGTSLTDELPLAEGLARRFRSRHREIRPGPQDILHSLPLTVWAADDLMRDNASLPTSLLARAAGEELKVVFSGEGGDEVFAGYGRYRTSPLERLFKSLLAPGSGGFRTRGSFRGRWPKTLFGPALLAAAQSARRPVQESWRETPREWSDLQRMQYVDLCHALPDNLLVKADRMLMAWGVEGRVPFLDHRVVEFGLSLPDRLKIEGRQGKLFLKRWGERLVPAEQLYARKEGHHHHHH | not soluble
MGSDKIHHHHHHMSWKLSIIRLLNKSLVPNQQRALVVFTVLLLCACGKAKIPFSPITVSQTPVTTAQFTDDIDTVSTLEAKEEVHLAAQASGRIIELKIDQGDQVQPGQMLVVLDQAQIRAELADFKAQEQKNKLNWQRYEFLVPQGAASALDRDEYKAQYIASREKVKATEATLAYSNLRSPISGIVADVDVKVGDVIRSGDPFTKLIRNNRLFARVEVPATFSDRIKIGLPVFLNKTGSSDVMATGEINSVGPTVNRTTQGLLVKAAFENANGSLRNGQRLRTRVQLDTREELSVPFAAVTQTSGQSFVYRVGSFQELEDFSGNISLDKLRKLPPSTRFALQTPVTLGKLQKQRYAVTKGLKLGEQVITTNLLKLRHGMPISVKN | not soluble
MSELFSERIPPQSIEAEQAVLGAVFLDPAALVPASEILIPEDFYRAAHQKIFHAMLRVADRGEPVDLVTVTAELAASEQLEEIGGVSYLSELADAVPTAANVEYYARIVEEKSVLRRLIRTATSIAQDGYTREDEIDVLLDEADRKIMEVSQRKHSGAFKNIKDILVQTYDNIEMLHNRDGEITGIPTGFTELDRMTSGFQRSDLIIVAARPSVGKTAFALNIAQNVATKTNENVAIFSLEMSAQQLVMRMLCAEGNINAQNLRTGKLTPEDWGKLTMAMGSLSNAGIYIDDTPSIRVSDIRAKCRRLKQESGLGMIVIDYLQLIQGSGRSKENRQQEVSEISRSLKALARELEVPVIALSQLSRSVEQRQDKRPMMSDIRESGSIEQDADIVAFLYRDDYYNKDSENKNIIEIIIAKQRNGPVGTVQLAFIKEYNKFVNLERRFDEAQIPPGA | soluble
MFEGKLVRLRAYRKEDIEKALEFANDPEVKKCLVPGIPFPWRKEDEEKWYQSLNPFSTDSYSFAIEKLSDGEYIGGCSINKIDWKNSVAEVGIFLGRPYWSQGYGTDAMRVLVRFIFNEMNMNKIKLHVFSFNERAKRVYEKIGFKVEGILRQELFREGRYHDVIVMGLLKSEWEDLTETDL | soluble
MGSDKIHHHHHHMISTEYRPKSLLEEFVVCFYFNKSDNFEYADYANPTTNQEMFFNLGDDFELKNSIGQVTSQRSWISGLQSKSLPIKCSGRHITAGVIFKPWGLYAAFGINAKELANKTIYSKWLCDLSNELDNSEFSESQFFDLMEFNLLKSIKRSKMTKVMQKIVNEIEQENVFTLSEKLNRSKKTIIESFNKMIGLSPHKFYTLKCICETITLLQNNPTIKLTELAYNQGFYDQAHFIRVFKEHTGLTPKEFRNSIMKR | not soluble
AEQDMYLLRQSFGKHKTVSAGVPWFSTLFGRDSLITASQTLMLNSQIAKETLILLAKYQGKIDDEWREEEPGKILHELRLGEMARCQEIPHTPYYGTVDATPLWLMLYAEHYAWTHDQELLELLWPNALAAMDWIDRNTKQTSYLSYFRKSKRGLANQGWKDSGDCIVNHKGELANGPIALCEVQAYVYAAKTRLAEIARMKKRLDLADRWLEEARSLKVRFNRDFWVEDQDFCALALDGDGKPVDSITSNPGHCLHLGLFTHERAYSVAERLRAPDMFNGWGIRTLSSLSPAYNPMGYHIGSVWPHDNALIAMGLRSLGLIDQALELFQGLFDMTSQQPYERPPELFCGYERNGDNAPVQYPVACTPQAWATGSIFQ | not soluble
MLQSGEWAYTEKLKEHFESPKNVLQGNDTSAFDGVGMEGNLQCGDQMMVAIKVDKESEKITDCQWKTYGCASAIASTSILSEMVKGMTLDQAFNISPKEVAKELGGLPENKIHCSVLGDKALRAAINDYFIRNGMSDRVQKVQARTVCQCMNVTDHDIEEAVLEGARTFYELQEHTKISTVCGQCREDAENELQKYIHLHFGS | soluble
MSDTVVASAAVQAPAKTVKSPKAAKTTKVPKAKKPVAHPPYINMVTAAINGLKERKGSSKIAILKYITKNYNVGDQIIKINARLRDTLNKGVVSKALVQSVGTGASGRFRVTEKKAAAAKKPVAKKAATGEKKAKKPVAQKAATGEKKAKKTTATKTKKTADKVKKVKSPKKIAKPTAKKVAKSPAKKSAPKKAAAAKPAKKAVAPKT | soluble
MGSDKIHHHHHHMSQQTGEASKIKGRFRNSHKVYGAGLGDLVGIIKAYLGAKRSAPSPKSAVPLQPITPAELARPQARLYRLGHSTVLMYLDGKWLLTDPVFSERASPFQWAGPKRFHQSPIAIEALPDIDGLILSHDHYDHLDTAAIKALAARVKHFYMPLGVGKRLIRLGIDKARITELDWWQSVQLGTIELTATPAQHFSGRGLFDRDATLWAGWAIHGEQARVFFSGDSGYFPGFAEIGERLGPFDVTLMETGAYNELWRDIHMMPEESLQAHLDVKGQLMVPIHNGTFDLALHDWFEPLERIRALAWDRSVKIATPIFGEALSLTLPGSGSDWWAQESAISTGVDAREKGRAPAAESSMVGIAES | not soluble
MLKYSNHMAFKDLREYIEFMKKKGKLIEVDDEVSVDLEIAEITRKATYAHLPPLLFKRVKNYENWKIVSNIFYSIESLYEIFGTNKLESISEGFLSNLSNMPITFFDKIKSLREILGLGKVMPKAKSPSFKEEKNLDLTKIPAIKTWPKDAGRYLTFSITITKDPETDVHNLSVYRVQILNEKEAIIHWQAFKRGALTAKKYLEKGISKIPIAVVTGVDPAIAFTAASPVPHGIDKYMFAGILRGEGIDVAELDNQLLVPSHSEVVLTGYVDLNDMRLEGPFGDHMGYYTPADYYPVFKLERVYIREDPIFHVTSVGKPPLEDAWIGKAVERIFLPFAKMLVPELIDMNLPEYGLFTGIGIFSIKKYYPGQAKRVMMALWGTGQLSLLKIIIVVDQDIDVHDINQVIYAIAANVDPKRDVWVIENALTDSLDPSVPFPPLGSKLGIDATRKFKEEMGKEWPEEVRSDEVVAKKADQILNKIIKRYQTSLEHHHHHH | not soluble
AIANGTELRETLEDLIKEVVQASREALDTQGELNERNEAALRTLEAQWRQRLIEELHEQGSLRVVLCRTDLLVPGSGATGTTTTNRTDPLRYVYETLRQRDPRERRRSLPPERSSQSSELEDTGTDSGEALSSGDDDDEISQVAGQPEPETANYVLSQYERVLAPSTNKQRIWRVFLRDAMVHINGQDLLLNQLQCQFDW | soluble
MGHHHHHHSHLSPDRRASLLTSLMLVKRDYRYDRVLFWGRILGLVADYYIAQGLSEDQLAPRKTLYSLNCTEWSLLPPATEEMVAQSSVVKGRFMGDPSYEYEHTELQKVNEGEKVFEEEIVVQIKEETRLVSVIDQIDKAVAIIPRGALFKTPFGPTHVNRTFEGLSLSEAKKLSSYFHFREPVELKNKTLLEKADLDPSLDFMDSLEHDIPKGSWSIQMERGNALVVLRSLLWPGLTFYHAPRTKNYGYVYVGTGEKNMDLPFML | not soluble
MMFNFYQFLYNLQNVSPFIDFSVLKQLTHTKMRENEPARFETRSFSQLIDHARSWKTEVRGMTTQGFTKISLMRAEKDRLNMYAISSVPGTNTQSIFSVTIPLELVEKAQVADRKFELKLKSGYNVDSYIRKTPPSAEFTLQCERQRSQVVTGISDYEIRNGKMILMAGDQLFRYNPLNEALAAIPIAVPDDQSSTEPMDISEGSITSGTKGCSNEAPQSSTVPPVTRIPIKKPTTSTEKPATAPPTNNFVSSAKVCPADSSLLAYVLNKQVYIEKNGKIIHRTSSNSKHITNGVPSYIVQEELERFEGIWWSESKTRLLYEHVNEEKVAESQFGVNGDPPVAPMKYPRAGTKNAYSTLRMVILENGKAYDVPLKDEVIYKHCPFYEYITRAGFFSDGTTVWVQVMSRDQAQCSLLLIPYTDFLLPEELGGSIKEDNLQLSTDLNMGVWDDKSHEETMEKPPRGKLRGTVQIHKARNDYWINTHNAIYPLKITDEEHPMYEFIYCLEKPNGSCLALISAELDQNGYCRHTEEKLLMAENFSINKSMGIVVDEVRELVYYVANESHPTEWNICVSHYRTGQHAQLTESGICFKSERANGKLALDLDHGFACYMTSVGSPAECRFYSFRWKENEVLPSTVYAANITVSGHPGQPDLHFDSPEMIEFQSKKTGLMHYAMILRPSNFDPYKKYPVFHYVYGGPGIQIVHNDFSWIQYIRFCRLGYVVVFIDNRGSAHRGIEFERHIHKKMGTVEVEDQVEGLQMLAERTGGFMDMSRVVVHGWSYGGYMALQMIAKHPNIYRAAIAGGAVSDWRLYDTAYTERYMGYPLEEHVYGASSITGLVEKLPDEPNRLMLVHGLMDENVHFAHLTHLVDECIKKGKWHELVIFPNERHGVRNNDASIYLDARMMYFAQQAIQGFGPTTAAPRQGPL | not soluble
MGSDKIHHHHHHMTWQVERIANEHLTLEVLPQIGASVLNLRAASGRPVLRPVNPAAVQTSSQCASFTLLPYSNRIRDARFSFQGREVLLRPTTKDGLAQHGDVRNRPWQVTRVADTHLRGDFDSRAFNDMNWPWAFTARVEYLLHGPHLDTSVTLTNVDTDEMPAGMGLHPYFTRRHGGRDPFLSFGAALTYDTDERQLPTGGPRTLHPEEDYQMPSSIGDRQLDRVYTAWDGRARLDWGERALTLTADAVYSHLVVFTAPDGSLALEPVTHATDAFNLAARGVSGTDMRTLLPGQSLAGTVRITLEGAW | not soluble
MSLFTGYGNCYRLDALELAAEHGHTMQHWTFKTIEHFRSILANPEFPCLFGRKAVNGETCHILFARAEQLADDIAQGLANYVRTVAPIAPKQRIGSPLVVFLETAAGSSLAEQQALAWKVLRGVHARDPHPWPQGIPTDPDDTGWSFCYAGMPLFINMNFPGHQQMKSRNLGQHITFVINPRENFDEVANANTESGKRIRERIRERVHHYNDGVVPDTLGFFGDTDNYEWKQYQLQEAGSLNPSRCPFHAHAAHQPTPDILIENEGHHHHHH | not soluble
NLSSEYVKDIYAYLRQLEAAQAVRPKYLLGREVTGNMRAILIDWLVQVQMKFRLLQETMYMTVSIIDRFMQNNSVPKKMLQLVGVTAMFIASKYEEMYPPEIGDFAFVTDNTYTKHQIRQMEMKILRALNFGLGRPLPLHFLRRASKIGEVDVEQHTLAKYLMELTMLDYDMVHFPPSQIAAGAFSLALKILDNGEWTPTLQHYLSYTEESLLPVMQHLAKNVVMVNQGLTKHMTVKNKYATSKHAKISTLPQLNSALVQDLAKAVAKV | soluble
MPQEIPPAVKYKIYPEGAEGIDTVWERPGFKKGEIEARVKDVVILRGEPVPNSYKMLVEATFELPKKDKITQLGLVNRHGLVTRVHYASPFKGAILPGDIILQVNGTTVSFDEKQLTEHVDETTGGASLQSNVKTVKRKPTTTPKTEPVRAPHSLYPDFKVVVGKILNSKSETKITVLVARLKNRMSTSKIPNGILATQDHTIDLAILYQFKYLQLGLNVQQVDRKVVVNYTIPDSVSHCSLNIGEAIIAVDDKPINTLADNRQRFREGFEANGWIRLLVEYPNTDPIKNMVRGQLANVMRTAERPQYLLCGDVRKYFVEGIEALKNGKALAPILKEEEGPGEVGKKKSDAKVTKKDPAVGFNNTTEEFFIPAEWNSKLFVWLPPLKTKVTESASSNMPVKK | not soluble
